# Test results taken from patent publication US20060040319A1, “Multiple sensor-containing active modified polypeptides, preparation and uses thereof” (priority 2000, published 2006).
# Where no end group is shown, it is not given here.
# What was measured:
# [1] = molecular target: T1, GST fusion of mouse c-Abl containing only the SH2 and kinase domains (Mus musculus, UniProt P00520); assay: Kinase assay with truncated c-Abl containing only the SH2 and kinase domains; format: biochemical; conditions: truncated c-Abl, after 60 min
# T1 construct: a GST fusion of mouse c-Abl containing only the SH2 and kinase domains; made in house; host or cells: E. coli BL21
# T1 sequence (P00520 127-493): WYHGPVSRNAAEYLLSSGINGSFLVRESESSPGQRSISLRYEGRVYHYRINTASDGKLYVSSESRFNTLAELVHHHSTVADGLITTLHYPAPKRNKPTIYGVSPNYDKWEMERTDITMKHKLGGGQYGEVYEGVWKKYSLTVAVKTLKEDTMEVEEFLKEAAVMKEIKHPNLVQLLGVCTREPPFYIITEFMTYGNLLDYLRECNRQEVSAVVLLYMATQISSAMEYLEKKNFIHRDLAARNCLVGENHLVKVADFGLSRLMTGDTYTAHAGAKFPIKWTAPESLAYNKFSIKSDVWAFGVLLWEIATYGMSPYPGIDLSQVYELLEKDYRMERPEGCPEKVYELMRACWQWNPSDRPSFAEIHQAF
# Experimental: (§1) Purified Rh-(Crk-II)-Fl prepared as described in Example I was treated with either full length recombinant (Baculovirus/SF9) mouse c-Abl or a GST fusion of mouse c-Abl containing only the SH2 and kinase domains (expressed in E. coli BL21 essentially as described (19)). In a typical experiment, the appropriate c-Abl construct was incubated in reaction buffer (2 mM DTT, 0.2 mg/ml BSA, 10 mM Mg^2+, 50 mM Tris, pH 7.4, either with or without ATP (500 μM)) for 5 min at 30° C. before addition of Rh-(Crk-II)-Fl (final concentration=0.25 μM). In order to ensure that equal amounts of active c-Abl enzyme were added to each reaction, preliminary titration experiments were carried out using an optimized peptide substrate for c-Abl (EAIYAAPFAKKK (SEQ ID No:2) (20)). […] In all cases, aliquots of the reaction mixtures were removed at ˜1 min and 60 min, quenched with EDTA (final conc.=40 mM), and then analyzed by native-PAGE and/or Western blotting and fluorescence spectroscopy. […]
# (§2) Fluorescence Spectroscopy. […] Excitation was at 490 nm with a 2.5 nm slit and the fluorescence emission was monitored at 520 nm and 580 nm through a 4 nm slit. […] Rh-(Crk-II)-Fl was treated with full length recombinant c-Abl and aliquots of the reaction mixture were analyzed by fluorescence spectroscopy and western blotting at ˜1 min and 60 min time-points. […]
# [2] = molecular target: T2, N-SH3 domain of Crk-II (binding to c-Abl) (Mus musculus, UniProt Q64010); assay: Peptide inhibition study: Crk-II phosphorylation by full length c-Abl in presence of N-SH3 ligand (Rh-(Crk-II)-Fl biosensor); format: biochemical; conditions: fluorescence-based assay
# T2 construct: extra Gly plus fluorescein peptide (Cys-Fl-PS, remainder after PreScission site) (C); made in house; host or cells: E. coli BL21 (Crk-II-intein fusion), then ligation of synthetic peptides
# T2 sequence (Q64010 with tags, fused parts or gaps): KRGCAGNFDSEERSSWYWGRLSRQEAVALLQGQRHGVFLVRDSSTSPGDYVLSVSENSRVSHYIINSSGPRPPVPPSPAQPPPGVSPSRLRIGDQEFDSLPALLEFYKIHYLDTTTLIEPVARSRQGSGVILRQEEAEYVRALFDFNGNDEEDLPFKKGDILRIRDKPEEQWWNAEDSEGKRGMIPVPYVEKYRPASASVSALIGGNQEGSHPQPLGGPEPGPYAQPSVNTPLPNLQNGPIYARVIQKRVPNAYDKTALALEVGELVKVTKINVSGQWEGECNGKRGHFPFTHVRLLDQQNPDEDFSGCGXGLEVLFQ
# Experimental: as §1, §2
Substance,phosphorylation of optimized peptide substrate [1],effect on Crk-II phosphorylation by c-Abl [2]
"EAIYAAPFAKKK (Peptide Substrate) [optimized peptide substrate for c-Abl, reference compound]",completely phosphorylated,–
PPPALPPKRRR-NH2 [high affinity N-SH3 ligand],–,partially inhibit Crk-II phosphorylation
